Measured values: paper PMC2856694

Molecular target: T1, gp96 from normal mouse organs (mouse (endogenous in mouse organs)), P08113
T1 chain: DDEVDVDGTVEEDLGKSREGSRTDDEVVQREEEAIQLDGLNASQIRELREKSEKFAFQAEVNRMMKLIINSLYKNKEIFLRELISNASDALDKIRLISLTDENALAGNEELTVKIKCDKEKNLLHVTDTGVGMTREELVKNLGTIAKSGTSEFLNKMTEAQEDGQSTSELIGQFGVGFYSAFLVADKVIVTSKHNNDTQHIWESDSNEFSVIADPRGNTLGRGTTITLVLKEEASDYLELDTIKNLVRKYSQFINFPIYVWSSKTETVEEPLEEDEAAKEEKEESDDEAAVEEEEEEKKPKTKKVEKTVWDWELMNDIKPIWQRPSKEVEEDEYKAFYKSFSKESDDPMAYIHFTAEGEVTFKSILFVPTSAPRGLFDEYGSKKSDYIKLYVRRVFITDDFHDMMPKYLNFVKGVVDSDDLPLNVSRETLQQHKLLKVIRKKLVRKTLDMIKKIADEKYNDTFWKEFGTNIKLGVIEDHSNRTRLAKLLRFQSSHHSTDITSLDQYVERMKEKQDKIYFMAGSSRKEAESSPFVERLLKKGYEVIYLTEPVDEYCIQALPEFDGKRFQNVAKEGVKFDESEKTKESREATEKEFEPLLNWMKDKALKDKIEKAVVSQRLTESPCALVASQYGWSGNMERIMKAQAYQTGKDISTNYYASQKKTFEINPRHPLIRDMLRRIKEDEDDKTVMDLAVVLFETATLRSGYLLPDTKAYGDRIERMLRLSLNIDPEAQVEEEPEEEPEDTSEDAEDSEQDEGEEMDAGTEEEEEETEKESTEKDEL
Experiment: non-reducing SDS-PAGE with immunoblot
Settings: remark: other sources report otherwise

B1: gp96 from normal mouse organs, P08113 22-802 (natural protein)
chain: T1 chain
  percent of total gp96 migrating at ~200 kDa (disulfide-linked dimer): < 50%
